This note sets out measurements from PMC4023160.

For test [1], the target named is ClpP protease (UniProt P0A6G7). The test can be described thus: negative-stain EM single-particle reconstruction; BAP(HAP)-ClpP complexes formed in 20 mM Tris-HCl pH 7.5, 20 mM KCl, 15 mM MgCl2, 1 mM DTT, 2 mM ATPγS; stained with 2% uranyl acetate; side views of 2:2 complexes cut into 1:1 halves; sixfold symmetry imposed or none.
The target of test [2] is BAP (ClpB with the ClpA tripeptide for ClpP binding), wild type (E. coli | not stated). Described as above.
Test [3] has as its target ClpP protease (UniProt P0A6G7). Nature of the test: HDX-MS; BAP (100 pmol) with ClpP (200 pmol), 3 min at 30°C in low salt buffer A (50 mM Tris pH 7.5, 25 mM KCl, 20 mM MgCl2, 2 mM DTT) with ATPγS, diluted 20-fold into D2O buffer, 60 s exchange; mass of full length BAP.
The target in test [4] is BAP Trap (E279A/E678A) variant (E. coli | not stated). The test can be described thus: cryo-EM structure; BAPtrap-ClpP and ClpB alone, vitrified, in the presence of ATPγS; side views only.
Test [5] concerns the target BAP-E432A (repressed mutant) (E. coli | not stated). Nature of the test: negative-stain EM single-particle reconstruction; BAP(HAP)-ClpP complexes formed in 20 mM Tris-HCl pH 7.5, 20 mM KCl, 15 mM MgCl2, 1 mM DTT, 2 mM ATPγS; stained with 2% uranyl acetate; side views of 2:2 complexes cut into 1:1 halves; sixfold symmetry imposed or none.
Test [6] has as its target HAP (Hsp104 with the ClpA tripeptide for ClpP binding) (S. cerevisiae). The test is described as above.

Chain of ClpP protease (P0A6G7 15-207): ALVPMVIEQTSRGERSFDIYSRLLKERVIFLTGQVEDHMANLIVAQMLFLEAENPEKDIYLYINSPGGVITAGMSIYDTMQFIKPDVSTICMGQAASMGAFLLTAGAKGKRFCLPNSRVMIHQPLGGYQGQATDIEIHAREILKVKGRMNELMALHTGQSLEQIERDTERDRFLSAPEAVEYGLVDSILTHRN

What is called stoichiometry N is the number of molecules, sites or subunits per partner or assembly. As to “BAP (ClpB with the ClpA tripeptide for ClpP binding), wild type”, in the test with ClpP protease [1], the stoichiometry N (BAP hexamers per ClpP double-heptamer) amounted to 2. In test [2], the stoichiometry N was 6. For the same substance, the amide protons in BAP protected from exchange by ClpP (amide protons) with ClpP protease [3] is 30.

As to BAP Trap (E279A/E678A) variant, the stoichiometry N in test [4] is 6.

For BAP-E432A (repressed mutant), in test [5], the stoichiometry N worked out at 6.

“HAP (Hsp104 with the ClpA tripeptide for ClpP binding)” came in with a stoichiometry N in test [6] of 6.
